What was measured:
[1] = tested on: IBO-administered memory impairment and autism model; assay: Y-shaped maze experiment; type: in vivo, rat; settings: MANF-AAV-hMSC transplanted into the hippocampus of IBO rats
Protocol: Memory impairment and autism models were prepared by administering IBO to the entorhinal cortex of the rats, wherein the IBO destroys granule cells of the dentate gyrus (DG) and pyramidal cells of the hippocampus, which receive nerve signals input from the entorhinal cortex. Specifically, the rats were anesthetized with equitensin (10% ethanol containing 350 mM pentobarbital sodium, 250 mM chloral hydrate, 85 mM MgSO and 40% propylene glycol). The incisor bar of a stereotaxic device (Stoelting Co., U.S.A.) was placed 3.4 mm below the interaural line, and the injection needle angle was fixed at […] right from the center of the sagittal plane. 1.5 ul of IBO (1 mg/ml) was injected into the entorhinal cortex of the rat using the stereotaxic device. The IBO was injected into three locations of first, AP: -8.4, ML: -4.8, DV: -4.6; Second, AP; -8.4, ML: -4.8, DV: […]; Third, AP: -8.8, ML: - 3.65, DV: -3.4 (FIG. 7).
After 2-3 IBO injections, each group was randomly classified into an IBO-administrated group (negative control group), and a GFP-AAV-hMSC-administrated group (GFP-AAV) and a MANF-AAV-hMSC-administrated group […] as a control group. A rest period of one week was provided. […]

[2] = tested on: primary neural progenitor cells; assay: GAD-GFP reporter plasmid assay of GABAergic nerve cell differentiation; type: cell-based, rat; settings: MANF 30 ng/ml
From the text: In order to efficiently investigate the differentiation of the primary neural progenitor cells into GABAergic nerve cells by MANF, a plasmid (GAD-GFP) capable of easily and effectively observing and detecting the differentiation into the GABAergic nerve cells with the naked eye by recombining green fluorescent protein (GFP), a fluorescent protein, into the promoter region of the human GAD gene was used. When the activity of the promoter is increased, the differentiation into GABAergic nerve cells is promoted, and whether or not the activity of the promoter is increased can be monitored by the expression level of a reporter gene operably linked thereto. Accordingly, it can be seen that the differentiation into GABAergic nerve cells is promoted when the expression level of the reporter gene is increased. In addition, it is possible to easily observe the differentiation of GABAergic nerve cells using a transcription factor that binds to the promoter.
Specifically, on day 3 after culturing the primary neural progenitor cells, the cells were separated from the dish with 0.05% trypsin and subcultured, and then all groups were transfected with GAD-GFP DNA. The cells were seeded in a 24-well plate and cultured in N2 medium containing 10 ng/mL bFGF for 24 hours. N2 medium for differentiation without bFGF was treated with MANF at a concentration of 30 ng/ml, and after 3 and 5 days, it was fixed and stained.

[3] = tested on: hippocampus of IBO-administered memory impairment and autism model; assay: Immunohistochemical analysis of brain tissue (BrdU, SOX2, DCX, NeuN, GAD67, CNPase); type: in vivo, rat; settings: brain tissue after behavioral experiment
Protocol: The brain tissue stored in the same method as the immunostaining of Example 9-1 was washed twice with PBS, permeated in 0.5% Triton X-100 for 20 minutes, and cultured in 2N HCl at 37° C. for 30 minutes. Thereafter, blocking was performed in 15% standard serum, 3% bovine serum albumin (bio-WORLD, Dublin, OH, USA) and 0.1% Triton X-100 in a free-floating state for 2 hours. The tissue was doubly stained at 4° C. for 16 hours using BrdU (abcam, 1:700) antibody, SOX2 (R&D system, MAB2018, 1:2000), DCX (Santacruz, sc8066, 1:1000), NeuN (Millipore, MAB377B, 1:700), CNPase (Abcam, ab6319, 1:700), vGluT1 (Millipore, MAB5502, 1:700), GAD67 (Millipore, MAB5406, 1:2000) as primary antibodies. As secondary antibodies, mo-Alexa 488 (Invitrogen, A21202, 1:700), mo-Cy3 (Jackson lab, 715-165-151, 1:500), rb-Alexa 488 (Jackson lab, 711-546-152, 1:700), rat-Alexa 488 (Abcam, ab6326, 1:700), etc. were used. Immunostained tissues were scanned with a confocal microscope (LSM510, LSM800 Carl Zeiss, Oberkochen, Germany).
The number of differentiation markers in the hippocampus of each experimental animal was shown by counting the number of DAPI-labeled cells in the double and triple photographed slides and counting the number of each cells labeled by fluorescently labeling each differentiation marker, NeuN, CNPase, GAD and vGluT1. Here was counted the number of cells labeled with the secondary antibody that is precisely matched in shape and location and has the shape of a cell.

B1: MANF: one of 16 or more growth factors secreted into nerve stem cells by cerebrovascular cells; amino acid sequence of SEQ ID NO: 1 (protein)
chain: MRRMWATQGLAVALALSVLPGSRALRPGDCEVCISYLGRFYQDLKDRDVTFSPATIENELIKFCREARGKENRLCYYIGATDDAATKIINEVSKPLAHHIPVEKICEKLKKKDSQICELKYDKQIDLSTVDLKKLRVKELKKILDDWGETCKGCAEKSDYIRKINELMPKYAPKAASARTDL
modifications: MANF
memory ability in Y-shaped maze test [1]: memory improvement | number of NeuN-stained cells in MANF-treated group vs Con group ([2]; 3 and 5 days): no greater increase | GFP-positive cells (GAD promoter-GFP, GABAergic differentiation) ([2]; 3 and 5 days, vs Con group): increased compared to the Con group | number of NeuN-stained cells ([2]; after 3 days of differentiation): 10% | number of NeuN-stained cells ([2]; after 5 days of differentiation): 50% | differentiation of newly proliferated (BrdU stained) neural progenitor cells into GABAergic nerve cells (GAD) [3]: increased | differentiation of newly proliferated (BrdU stained) neural progenitor cells into mature nerve cells (NeuN) [3]: increased | differentiation of newly proliferated (BrdU stained) neural progenitor cells into oligodendrocytes (CNPase) [3]: increased | migration (DCX) of neural stem cells (Sox2+) ([3]; MANF-AAV-hMSC transplanted): promoted | proliferation (BrdU+, Ki67) of neural stem cells (Sox2+) ([3]; MANF-AAV-hMSC transplanted): promoted

— patent US20230363418A1, “COMPOSITION FOR PREVENTING OR TREATING NEUROPSYCHOLOGIC DISEASE, COMPRISING MANF” (CEFO CO., LTD., priority 2020, published 2023)
